According to publication PMC10397247:
Values belong to the binder of their own block, whether it stands above or below them.

Columns and labels:
[1] = molecular target: T1, 4H3974-bA; test: two-hybrid library CCNG1;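 also: natural log of median RNA to DNA barcode read ratio; higher means stronger binding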
T1 chain: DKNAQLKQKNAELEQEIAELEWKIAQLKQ

[2] = molecular target: T2, 4H3858-bA; test: two-hybrid library CCNG1;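 also: natural log of median RNA to DNA barcode read ratio; higher means stronger binding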
T2 chain: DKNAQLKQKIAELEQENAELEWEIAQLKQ

[3] = molecular target: T3, 4H570-bA; test: two-hybrid library CCNG1;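 also: natural log of median RNA to DNA barcode read ratio; higher means stronger binding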
T3 chain: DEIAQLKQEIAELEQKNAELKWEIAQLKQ

[4] = molecular target: T4, 4H850-bA; test: two-hybrid library CCNG1;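 also: natural log of median RNA to DNA barcode read ratio; higher means stronger binding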
T4 chain: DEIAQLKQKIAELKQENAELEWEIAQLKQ

[5] = molecular target: T5, 4H3817-bA; test: two-hybrid library CCNG1;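 also: natural log of median RNA to DNA barcode read ratio; higher means stronger binding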
T5 chain: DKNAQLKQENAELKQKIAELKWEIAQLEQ

[6] = molecular target: T6, 4H591-bA; test: two-hybrid library CCNG1;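 also: natural log of median RNA to DNA barcode read ratio; higher means stronger binding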
T6 chain: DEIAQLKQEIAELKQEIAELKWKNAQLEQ

[7] = molecular target: T7, 4H906-bA; test: two-hybrid library CCNG1
T7 chain: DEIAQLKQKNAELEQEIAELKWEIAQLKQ

[8] = molecular target: T8, 4H626-bA; test: two-hybrid library CCNG1
T8 chain: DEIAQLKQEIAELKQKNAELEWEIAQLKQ

[9] = molecular target: T9, 4H3628-bA; test: two-hybrid library CCNG1
T9 chain: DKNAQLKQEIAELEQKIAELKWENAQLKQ

[10] = molecular target: T10, 4H3926-bA; test: two-hybrid library CCNG1
T10 chain: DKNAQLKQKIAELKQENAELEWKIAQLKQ

[11] = molecular target: T11, 4H687-bN; test: two-hybrid library CCNG1
T11 chain: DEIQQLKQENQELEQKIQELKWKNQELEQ

[12] = molecular target: T12, 4H883-bN; test: two-hybrid library CCNG1
T12 chain: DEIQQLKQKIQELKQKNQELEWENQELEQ

[13] = molecular target: T13, 4H967-bN; test: two-hybrid library CCNG1
T13 chain: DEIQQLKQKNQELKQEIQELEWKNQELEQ

[14] = molecular target: T14, 4H918-bN; test: two-hybrid library CCNG1
T14 chain: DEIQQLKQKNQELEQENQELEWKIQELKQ

[15] = molecular target: T15, 4H3782-bN; test: two-hybrid library CCNG1
T15 chain: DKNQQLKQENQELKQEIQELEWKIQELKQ

[16] = molecular target: T16, 4H454-bN; test: two-hybrid library CCNG1
T16 chain: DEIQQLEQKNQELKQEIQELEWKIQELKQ

[17] = molecular target: T17, 4H568-bN; test: two-hybrid library CCNG1
T17 chain: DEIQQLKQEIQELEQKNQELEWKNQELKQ

[18] = molecular target: T18, 4H908-bN; test: two-hybrid library CCNG1
T18 chain: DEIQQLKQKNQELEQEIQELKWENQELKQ

[19] = molecular target: T19, 4H4001-bN; test: two-hybrid library CCNG1
T19 chain: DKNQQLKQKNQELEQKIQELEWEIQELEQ

[20] = molecular target: T20, 4H3354-bN; test: two-hybrid library CCNG1
T20 chain: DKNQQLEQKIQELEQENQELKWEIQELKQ

[21] = molecular target: T21, 4H3427-bN; test: two-hybrid library CCNG1
T21 chain: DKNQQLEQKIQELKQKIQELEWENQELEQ

[22] = molecular target: T22, 4H72-bN; test: two-hybrid library CCNG1
T22 chain: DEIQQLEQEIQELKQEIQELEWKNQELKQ

[23] = molecular target: T23, 4H717-bN; test: two-hybrid library CCNG1
T23 chain: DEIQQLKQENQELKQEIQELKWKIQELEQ

[24] = molecular target: T24, 4H607-bN; test: two-hybrid library CCNG1
T24 chain: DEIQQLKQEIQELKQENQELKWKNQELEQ

[25] = molecular target: T25, 4H338-bN; test: two-hybrid library CCNG1
T25 chain: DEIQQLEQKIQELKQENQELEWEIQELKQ

[26] = molecular target: T26, 4H3855-bN; test: two-hybrid library CCNG1
T26 chain: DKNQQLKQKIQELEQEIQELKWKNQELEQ

[27] = molecular target: T27, 4H754-bN; test: two-hybrid library CCNG1
T27 chain: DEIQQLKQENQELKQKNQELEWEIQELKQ

[28] = molecular target: T28, 4H953-bN; test: two-hybrid library CCNG1
T28 chain: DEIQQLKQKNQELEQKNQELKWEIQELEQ

[29] = molecular target: T29, 4H797-bN; test: two-hybrid library CCNG1
T29 chain: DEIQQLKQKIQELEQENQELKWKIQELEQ

[30] = molecular target: T30, P6SC2; test: two-hybrid library CC1
T30 chain: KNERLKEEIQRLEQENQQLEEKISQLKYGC

[31] = molecular target: T31, P7; test: two-hybrid library CC1; conditions: mean of both orientations
T31 chain: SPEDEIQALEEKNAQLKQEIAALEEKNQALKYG

[32] = molecular target: T32, P8; test: two-hybrid library CC1; conditions: mean of both orientations
T32 chain: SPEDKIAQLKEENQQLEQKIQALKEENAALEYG

[33] = molecular target: T33, P9; test: two-hybrid library CC1; conditions: mean of both orientations
T33 chain: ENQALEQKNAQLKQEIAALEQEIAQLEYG

[34] = molecular target: T34, P6mS; test: two-hybrid library CC1; conditions: mean of both orientations
T34 chain: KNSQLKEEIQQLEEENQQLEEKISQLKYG

[35] = molecular target: T35, P8mS; test: two-hybrid library CC1; conditions: mean of both orientations
T35 chain: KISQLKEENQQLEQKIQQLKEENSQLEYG

[36] = molecular target: T36, P7mS; test: two-hybrid library CC1; conditions: mean of both orientations
T36 chain: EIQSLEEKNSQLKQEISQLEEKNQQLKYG

interaction score [1]: -0.665
interaction score [2]: 0.569
interaction score [3]: 1.16
interaction score [4]: -0.964
Binder: DKNAQLKQKIAELEQENAELEWEIAQLKQ [4H3858-bA]

interaction score [5]: 0.612
interaction score [1]: 1.31
interaction score [2]: -0.214
interaction score [3]: -0.226
interaction score [6]: -0.511
interaction score [7]: -0.866
interaction score [8]: -1.6
interaction score [9]: 0.549
interaction score [4]: 0.124
interaction score [10]: 0.307
Binder: DKNAQLKQEIAELEQKIAELKWENAQLKQ [4H3628-bA]

interaction score [11]: -1.25
interaction score [12]: -0.871
interaction score [13]: -1.24
interaction score [14]: -0.605
interaction score [15]: -1.06
interaction score [16]: -0.726
interaction score [17]: -0.364
interaction score [18]: -0.992
interaction score [19]: -0.318
interaction score [20]: 1.43
interaction score [21]: -0.405
interaction score [22]: -1.09
interaction score [23]: -0.894
interaction score [24]: -0.0582
interaction score [25]: -0.511
interaction score [26]: -0.269
interaction score [27]: -0.289
interaction score [28]: -0.946
interaction score [29]: -0.685
Binder: DKNQQLEQKIQELEQENQELKWEIQELKQ [4H3354-bN]

Binder: KNERLKEEIQRLEQENQQLEEKISQLKYGC [P6SC2]
interaction score [30]: -2.13
interaction score [31]: 0.0928
interaction score [32]: -1.84
interaction score [33]: -1.47
interaction score [34]: -2.75
interaction score [35]: -2.54
interaction score [36]: -1.75
